Paper PMC3422223 (PLoS ONE, 2012)
Where a chain is given by its changes, count along the chain named.

B1: 18V4F hybridoma antibody (murine IgG2a/lambda) (antibody, V domains shown)
VH: QVQLKESGPGLVAPSQSLSITCTVSGFSLTGYGIHWVRQPPGKGLEWLGVIWPGGGTNYNSALMSRLSISKDNSKSQVFLKMNSLQTDDTAMYYCARGPLITTEVSMDYWGQGTSVTVSS
VL: QAVVTQESALTTSPGETVTLTCRSNTGAVTTSNYANWVQEKPDHLFTGLIGGTNNRAPGVPARFSGSLIGDKAALTITGAQTEDEAIYFCALWYSNHWVFGGGTKLTVL
B2: 18V4F Fab variant d7 (Fab, V domains shown)
VH: EVQLVESGGGLVQPGGSLRLSCAASGFSLYDEGAHWVRQAPGKGLEWVGVIWPGGGTNYNSALMSRFTISKDNSKNTVYLQMNSLRAEDTAVYYCARGPLITTEVSMDYWGQGTLVTVSS
VL: SAEVTQPPSVSVSPGQTARITCSSNTGAVTTSNYANWVQQKPGQAPVGLIGGTNERPSGIPERFSGSSSGNTATLTISGAQAEDEADYYCALWYSNHWVFGGGTKLTVL
B3: d5d7 Fab (Fab, V domains shown)
VH: B2 VH
VL: B2 VL with G27P, A28L, V29R, T30P, T31Y, S32R
notes: also called 18V4F Fab variant d5d7; not shown: His6, C-terminal, kept
B4: humanized 18V4F Fab (Fab, V domains shown)
VH: B2 VH with Y30T, D31G, E32Y, G33A, A34M
VL: B2 VL
notes: also called Hu-18V4F
B5: 18V4F Fab variant d5 (Fab, V domains shown)
VH: B2 VH with Y30T, D31G, E32Y, G33A, A34M
VL: B2 VL with G27P, A28L, V29R, T30P, T31Y, S32R
B6: murine 18V4F Fab (Fab, V domains shown)
VH: B1 VH
VL: B1 VL
notes: also called Mu-18V4F

Experiments:
CCL5 [1] = target: T1, CCL5 (Homo sapiens, UniProt P13501, biotin (sulfo-NHS-LC-biotin) in the Biacore and streptavidin-plate ELISA experiments; not biotinylated where coated directly); test: cell-based or functional assay
CCL3 [2] = target: T2, CCL3 (Homo sapiens, UniProt P10147, biotin (sulfo-NHS-LC-biotin) in the Biacore and streptavidin-plate ELISA experiments; not biotinylated where coated directly); test: cell-based or functional assay
CCL4 [3] = target: T3, CCL4 (Homo sapiens, UniProt P13236, biotin (sulfo-NHS-LC-biotin) in the Biacore and streptavidin-plate ELISA experiments; not biotinylated where coated directly); test: cell-based or functional assay
CCL3 [4] = target: T2, CCL3; test: SPR; Biacore 2000; biotinylated CCL3, CCL4, CCL5 immobilised on a streptavidin chip (~100 RU); Fabs flowed over at 500 pM to 1 µM; regeneration 10 mM glycine pH 1.5; triplicate; 1:1 Langmuir fit, murine and humanized 18V4F Fabs fit to a steady state model; conditions: both partners purified
CCL4 [5] = target: T3, CCL4; test: as above; conditions: both partners purified
CCL5 [6] = target: T1, CCL5; test: as above; conditions: both partners purified

T1 sequence (P13501 24-91): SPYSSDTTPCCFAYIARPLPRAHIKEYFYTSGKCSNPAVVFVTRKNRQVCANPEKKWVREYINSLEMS
T2 sequence (P10147 24-92): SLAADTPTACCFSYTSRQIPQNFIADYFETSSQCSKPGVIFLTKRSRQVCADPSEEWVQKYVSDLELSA
T3 sequence (P13236 24-92): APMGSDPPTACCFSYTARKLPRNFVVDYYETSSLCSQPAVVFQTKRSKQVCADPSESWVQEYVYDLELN

Binder | IC50 of inhibition of chemotaxis of CCR5-transfected Ba/F3 cells to 5 ng/mL CCL5 (blocks CCL5 with CCR5) (CCL5 [1]) | IC50 of inhibition of chemotaxis of CCR5-transfected Ba/F3 cells to 5 ng/mL CCL3 (blocks CCL3 with CCR5) (CCL3 [2]) | IC50 of inhibition of chemotaxis of CCR5-transfected Ba/F3 cells to 5 ng/mL CCL4 (blocks CCL4 with CCR5) (CCL4 [3]) | Kd (CCL3 [4]) | koff (CCL3 [4]) | kon (CCL3 [4]) | Kd (CCL4 [5]) | koff (CCL4 [5]) | kon (CCL4 [5]) | Kd (CCL5 [6]) | koff (CCL5 [6]) | kon (CCL5 [6])
B1 | > 1000 nM | 196 nM | 185 nM | – | – | – | – | – | – | – | – | –
B2 | 4.1 nM | 18 nM | 0.6 nM | 35 nM | 0.0033 s⁻¹ | 110000 M⁻¹ s⁻¹ | 7.3 nM | 0.0004 s⁻¹ | 60000 M⁻¹ s⁻¹ | – | – | –
B3 | 0.9 nM | 1 nM | 0.2 nM | 8.5 nM | 0.0054 s⁻¹ | 80000 M⁻¹ s⁻¹ | 1.8 nM | 0.0036 s⁻¹ | 380000 M⁻¹ s⁻¹ | – | – | –
B4 | > 1000 nM | > 1000 nM | > 1000 nM | 272 nM | – | – | 251 nM | – | – | 187 nM | – | –
B5 | 105 nM | 187 nM | 49 nM | 30.4 nM | 0.0031 s⁻¹ | 100000 M⁻¹ s⁻¹ | 15.9 nM | 0.0012 s⁻¹ | 70000 M⁻¹ s⁻¹ | 5.5 nM | 0.0014 s⁻¹ | 340000 M⁻¹ s⁻¹
B6 | – | – | – | 209 nM | – | – | 103 nM | – | – | 50.3 nM | – | –
